From patent US20140329752A1 (published 2014)
Ends that are not written are not given here.

Each binder was assayed against T1, amylin receptor AMY1, a CT (calcitonin) receptor/RAMP1 (receptor-activity modifying protein) complex (UniProt P30988 25-474; O60894 27-148, limits assumed) (assay: cell-based or functional assay).
T1 sequence (P30988 25-474 limits assumed, chain 1 of 2): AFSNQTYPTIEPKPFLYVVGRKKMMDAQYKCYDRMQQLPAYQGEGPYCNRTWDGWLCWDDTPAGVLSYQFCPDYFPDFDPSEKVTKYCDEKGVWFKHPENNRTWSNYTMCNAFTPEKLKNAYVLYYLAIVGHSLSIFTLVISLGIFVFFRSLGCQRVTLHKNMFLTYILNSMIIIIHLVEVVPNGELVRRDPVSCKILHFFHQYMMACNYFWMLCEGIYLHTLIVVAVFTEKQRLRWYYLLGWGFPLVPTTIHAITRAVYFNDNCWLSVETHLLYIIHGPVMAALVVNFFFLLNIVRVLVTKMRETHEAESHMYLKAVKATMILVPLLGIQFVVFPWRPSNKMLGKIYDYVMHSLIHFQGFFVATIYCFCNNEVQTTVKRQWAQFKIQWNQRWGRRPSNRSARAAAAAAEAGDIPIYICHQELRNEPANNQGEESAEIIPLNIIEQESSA
T1 sequence (O60894 27-148 limits assumed, chain 2 of 2): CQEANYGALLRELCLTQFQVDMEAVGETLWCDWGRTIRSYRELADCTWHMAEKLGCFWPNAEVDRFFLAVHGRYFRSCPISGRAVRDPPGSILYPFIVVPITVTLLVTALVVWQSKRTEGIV

Row | Binder | IC50 nM (calcium flux, assay positive control) [nM]
1 | VLGKLSQELHKLQTYPRTNTGSNTY (not fully specified) [AC187] | 8150

Biological target: T1, amylin receptor AMY1, a CT (calcitonin) …
Assay: cell-based or functional assay
Remark: another data set of the same source

Row | Binder | IC50 nM (calcium flux, inhibition of stimulation by 32 nM α-CGRP) [nM]
2 | ACVLGACVLGRLSQELHRLQTYPVDPSSPHSY-NH2 (not fully specified (bridges); printed as Ala-Cys-Val-Leu-Gly-Ala-Cys-Val-Leu-Gly-Arg-Leu-Ser-Gln-Glu-Leu-His-Arg-Leu-Gln-Thr-Tyr-Pro-Val-Asp-Pro-Ser-Ser-Pro-His-Ser-Tyr-NH2; cysteine pairing not given here) [modified calcitonin gene-related peptide antagonist of SEQ ID NO: 14] | 1020
3 | H-ACVLGACVLGRLSQELHRLQTYPRTNVGSKAF-NH2 (not fully specified (bridges); printed as NH2-Ala-Cys-Val-Leu-Gly-Ala-Cys-Val-Leu-Gly-Arg-Leu-Ser-Gln-Glu-Leu-His-Arg-Leu-Gln-Thr-Tyr-Pro-Arg-Thr-Asn-Val-Gly-Ser-Lys-Ala-Phe-NH2; cysteine pairing not given here) [modified calcitonin gene-related peptide antagonist of SEQ ID NO: 5] | 75
4 | H-ACDTASCVLGRLSQELHRLQTYPRTNVGSKAF-NH2 (not fully specified (bridges); printed as NH2-Ala-Cys-Asp-Thr-Ala-Ser-Cys-Val-Leu-Gly-Arg-Leu-Ser-Gln-Glu-Leu-His-Arg-Leu-Gln-Thr-Tyr-Pro-Arg-Thr-Asn-Val-Gly-Ser-Lys-Ala-Phe-NH2; cysteine pairing not given here) [modified calcitonin gene-related peptide antagonist of SEQ ID NO: 2] | 5
5 | H-ACDTAVCVLGRLSQELHRLQTYPRTNVGSKAF-NH2 (not fully specified (bridges); printed as NH2-Ala-Cys-Asp-Thr-Ala-Val-Cys-Val-Leu-Gly-Arg-Leu-Ser-Gln-Glu-Leu-His-Arg-Leu-Gln-Thr-Tyr-Pro-Arg-Thr-Asn-Val-Gly-Ser-Lys-Ala-Phe-NH2; cysteine pairing not given here) [modified calcitonin gene-related peptide antagonist of SEQ ID NO: 3] | 4
6 | H-CSNTAVCVLGRLSQELHRLQTYPRTNVGSKAF-NH2 (not fully specified (bridges); printed as NH2-Cys-Ser-Asn-Thr-Ala-Val-Cys-Val-Leu-Gly-Arg-Leu-Ser-Gln-Glu-Leu-His-Arg-Leu-Gln-Thr-Tyr-Pro-Arg-Thr-Asn-Val-Gly-Ser-Lys-Ala-Phe-NH2; cysteine pairing not given here) [modified calcitonin gene-related peptide antagonist of SEQ ID NO: 12] | 9
7 | H-CSNTAACVLGRLSQELHRLQTYPRTNVGSKAF-NH2 (not fully specified (bridges); printed as NH2-Cys-Ser-Asn-Thr-Ala-Ala-Cys-Val-Leu-Gly-Arg-Leu-Ser-Gln-Glu-Leu-His-Arg-Leu-Gln-Thr-Tyr-Pro-Arg-Thr-Asn-Val-Gly-Ser-Lys-Ala-Phe-NH2; cysteine pairing not given here) [modified calcitonin gene-related peptide antagonist of SEQ ID NO: 8] | 16
8 | H-ACNLSACVLGRLSQELHRLQTYPTNTGSGTP-NH2 (not fully specified (bridges); printed as NH2-Ala-Cys-Asn-Leu-Ser-Ala-Cys-Val-Leu-Gly-Arg-Leu-Ser-Gln-Glu-Leu-His-Arg-Leu-Gln-Thr-Tyr-Pro-Thr-Asn-Thr-Gly-Ser-Gly-Thr-Pro-NH2; cysteine pairing not given here) [modified calcitonin gene-related peptide antagonist of SEQ ID NO: 13] | 4
9 | H-ACRFGACVLGRLSQELHRLQTYPRTNVGSKAF-NH2 (not fully specified (bridges); printed as NH2-Ala-Cys-Arg-Phe-Gly-Ala-Cys-Val-Leu-Gly-Arg-Leu-Ser-Gln-Glu-Leu-His-Arg-Leu-Gln-Thr-Tyr-Pro-Arg-Thr-Asn-Val-Gly-Ser-Lys-Ala-Phe-NH2; cysteine pairing not given here) [modified calcitonin gene-related peptide antagonist of SEQ ID NO: 6] | 33
10 | H-ACDTAACVLGRLSQELHRLQTYPRTNVGSKAF-NH2 (not fully specified (bridges); printed as NH2-Ala-Cys-Asp-Thr-Ala-Ala-Cys-Val-Leu-Gly-Arg-Leu-Ser-Gln-Glu-Leu-His-Arg-Leu-Gln-Thr-Tyr-Pro-Arg-Thr-Asn-Val-Gly-Ser-Lys-Ala-Phe-NH2; cysteine pairing not given here) [modified calcitonin gene-related peptide antagonist of SEQ ID NO: 1] | 17
11 | ACDTAACVTHRLAGLLSRSGGVVKNNFVPTNVGSKAF-NH2 (not fully specified (bridges); printed as Ala-Cys-Asp-Thr-Ala-Ala-Cys-Val-Thr-His-Arg-Leu-Ala-Gly-Leu-Leu-Ser-Arg-Ser-Gly-Gly-Val-Val-Lys-Asn-Asn-Phe-Val-Pro-Thr-Asn-Val-Gly-Ser-Lys-Ala-Phe-NH2; cysteine pairing not given here) [modified calcitonin gene-related peptide antagonist of SEQ ID NO: 15] | 1240
12 | H-ACDTALCVLGRLSQELHRLQTYPRTNVGSKAF-NH2 (not fully specified (bridges); printed as NH2-Ala-Cys-Asp-Thr-Ala-Leu-Cys-Val-Leu-Gly-Arg-Leu-Ser-Gln-Glu-Leu-His-Arg-Leu-Gln-Thr-Tyr-Pro-Arg-Thr-Asn-Val-Gly-Ser-Lys-Ala-Phe-NH2; cysteine pairing not given here) [modified calcitonin gene-related peptide antagonist of SEQ ID NO: 9] | 9
13 | H-ACNTAACVLGRLSQELHRLQTYPRTNVGSKAF-NH2 (not fully specified (bridges); printed as NH2-Ala-Cys-Asn-Thr-Ala-Ala-Cys-Val-Leu-Gly-Arg-Leu-Ser-Gln-Glu-Leu-His-Arg-Leu-Gln-Thr-Tyr-Pro-Arg-Thr-Asn-Val-Gly-Ser-Lys-Ala-Phe-NH2; cysteine pairing not given here) [modified calcitonin gene-related peptide antagonist of SEQ ID NO: 4] | 12
14 | H-ACNLSVCVLGRLSQELHRLQTYPRTNVGSKAF-NH2 (not fully specified (bridges); printed as NH2-Ala-Cys-Asn-Leu-Ser-Val-Cys-Val-Leu-Gly-Arg-Leu-Ser-Gln-Glu-Leu-His-Arg-Leu-Gln-Thr-Tyr-Pro-Arg-Thr-Asn-Val-Gly-Ser-Lys-Ala-Phe-NH2; cysteine pairing not given here) [modified calcitonin gene-related peptide antagonist of SEQ ID NO: 11] | 9
15 | H-ACDTAICVLGRLSQELHRLQTYPRTNVGSKAF-NH2 (not fully specified (bridges); printed as NH2-Ala-Cys-Asp-Thr-Ala-Ile-Cys-Val-Leu-Gly-Arg-Leu-Ser-Gln-Glu-Leu-His-Arg-Leu-Gln-Thr-Tyr-Pro-Arg-Thr-Asn-Val-Gly-Ser-Lys-Ala-Phe-NH2; cysteine pairing not given here) [modified calcitonin gene-related peptide antagonist of SEQ ID NO: 10] | 9
16 | H-ACNLSACVLGRLSQELHRLQTYPRTNVGSKAF-NH2 (not fully specified (bridges); printed as NH2-Ala-Cys-Asn-Leu-Ser-Ala-Cys-Val-Leu-Gly-Arg-Leu-Ser-Gln-Glu-Leu-His-Arg-Leu-Gln-Thr-Tyr-Pro-Arg-Thr-Asn-Val-Gly-Ser-Lys-Ala-Phe-NH2; cysteine pairing not given here) [modified calcitonin gene-related peptide antagonist of SEQ ID NO: 7] | 8
